How the values were obtained:
[1] = target: T1, Dps (Escherichia coli, UniProt P0ABT2 1-167); assay: EMSA; 2-fold Dps excess: triplex significantly reduced; EMSA: 50 mM Tris-HCl pH 7.5, 0.1 mM EDTA, 50 mM NaCl, 37°C 30 min; footprinting: 50 mM Tris-HCl pH 8.0, 0.1 mM EDTA, 0.1 mM DTT, 10 mM MgCl2, 50 mM NaCl, 5 mg/m
[2] = target: T1, Dps; assay: AFM; bound protein slightly shifted from center; EMSA: 50 mM Tris-HCl pH 7.5, 0.1 mM EDTA, 50 mM NaCl, 37°C 30 min; footprinting: 50 mM Tris-HCl pH 8.0, 0.1 mM EDTA, 0.1 mM DTT, 10 mM MgCl2, 50 mM NaCl, 5 mg/m

Row | Binder | binding result [1] | binding result [2]
1 | Y5_Y6_Y7 (structured_DNA) DNA 1: CTTTTCCTCTACACCGTCTTTATATATCGAATTAAGAAGTCGCAATGAGTATTACTTTGTAAAT DNA 2: CAAGGGTAAACGAACCTTGCGCTTTCTTAAATATTCGATATATAAAGACGGTGTAGAGGAAAAG DNA 3: ATTTACAAAGTAATACTCATTGCGACTTCTTAATTTAAGAAAGCGCAAGGTTCGTTTACCCTTG | binds | –
2 | Y5_Y6_Y8 (structured_DNA) DNA 1: CTTTTCCTCTACACCGTCTTTATATATCGAATTAAGAAGTCGCAATGAGTATTACTTTGTAAAT DNA 2: CAAGGGTAAACGAACCTTGCGCTTTCTTAAATATTCGATATATAAAGACGGTGTAGAGGAAAAG DNA 3: ATTTACAAAGTAATACTCATTGCGACTTCTTAATTTAAGAAAGCGCAAGGAACGTTTACCCTTG | – | binds

— PMC4433220
